This is an account of results in PMC12371696.

Ends that are not written are not given here.

The target of experiment [1] is Trastuzumab with E5 Ecoil peptides fused at the C-termini of heavy and light chains (TZM-E5). Put plainly: SEC-MALS; UPLC-SEC-MALS; TZM-Ex mixed with Kx-mRFP at 1:4 molar ratio (2 nmol + 8 nmol), 45 min at room temperature; BEH200 column, 0.2 M potassium phosphate, 0.2 M potassium chloride, 0.02% Tween-20, pH 7.0, 30 °C. In general terms: SEC sorts molecules by how far they enter the pores of the column.

Experiment [2] shares this target.

Turning to “K5 Kcoil peptide fused to the N-terminus of monomeric red fluorescent protein (K5-mRFP) (designed binder)”, the stoichiometry N (K5-mRFP per TZM-E5) in experiment [1] turned out to be 4. With KVSALKEKVSALKEKVSALKEKVSALKEKVSALKEGGC(CF750 maleimide) [K5 Kcoil peptide (KVSALKE)5-GGC conjugated to CF750 maleimide near-infrared dye (K5-CF750)], the tumor fluorescence (total radiant efficiency, area under the curve 3-336 h) after intravenous injection of the preformed TZM-E5/K5-CF750 complex in the SKOV3 xenograft mouse model ([p/s] × h /[uW/cm^2]) in experiment [2] was found to be 4.4e+13.
